From PMC6910828, “Extraction of active RhoGTPases by RhoGDI regulates spatiotemporal patterning of RhoGTPases” (eLife, 2019)

Legend:
Conditions in all cases: both partners purified
[1] = molecular target: Cy3-labelled, prenylated Cdc42 G12V, GTPγS-bound (Cy3 at the N-terminus (Cy3 N-t labeled LPETGG peptide joined by sortase); geranylgeranyl by in vitro prenylation (C-terminal prenyl moiety); GTPγS-bound); assay: membrane extraction (wash-off) assay on supported lipid bilayers, TIRF; as above, GDI titrated between 0 and 20 µM; Koff of the GTPase from the membrane plotted against GDI concentration and fitted with a hyperbolic function (Kd, Vmax); apparent affinities
[2] = molecular target: Cy3-labelled, prenylated Rho G14V, GTPγS-bound (Cy3 at the N-terminus (Cy3 N-t labeled LPETGG peptide joined by sortase); geranylgeranyl by in vitro prenylation (C-terminal prenyl moiety); GTPγS-bound); assay: as above
[3] = molecular target: Cy3-labelled, prenylated Cdc42, wild type, GDP-bound (Cy3 at the N-terminus (Cy3 N-t labeled LPETGG peptide joined by sortase); geranylgeranyl by in vitro prenylation (C-terminal prenyl moiety); GDP-bound); assay: membrane extraction (wash-off) assay on supported lipid bilayers, TIRF; Cy3-labelled prenylated GTPase (200 nM) equilibrated on 100% DOPC supported lipid bilayers, flushed at 10 µL/sec with imaging buffer (20 mM HEPES pH 7.0, 150 mM KCl, 1.5 mM MgCl2, 0.5 mM EGTA, 100 µM GDP/GTP) alone or with 5 µM RhoGDI; decay fitted with a monoexponential function
Chain of Cy3-labelled, prenylated Cdc42, wild type, GDP-bound (Cy3 at the N-terminus (Cy3 N-t labeled LPETGG peptide joined by sortase); geranylgeranyl by in vitro prenylation (C-terminal prenyl moiety); GDP-bound) (P60953 whole entry): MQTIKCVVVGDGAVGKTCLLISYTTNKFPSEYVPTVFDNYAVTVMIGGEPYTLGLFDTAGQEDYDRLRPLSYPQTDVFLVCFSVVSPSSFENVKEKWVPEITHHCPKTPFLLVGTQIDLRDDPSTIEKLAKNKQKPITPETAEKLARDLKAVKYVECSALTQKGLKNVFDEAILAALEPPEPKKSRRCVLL

Chain of Cy3-labelled, prenylated Rho G14V, GTPγS-bound (Cy3 at the N-terminus (Cy3 N-t labeled LPETGG peptide joined by sortase); geranylgeranyl by in vitro prenylation (C-terminal prenyl moiety); GTPγS-bound) (chain, as listed by the source G14V): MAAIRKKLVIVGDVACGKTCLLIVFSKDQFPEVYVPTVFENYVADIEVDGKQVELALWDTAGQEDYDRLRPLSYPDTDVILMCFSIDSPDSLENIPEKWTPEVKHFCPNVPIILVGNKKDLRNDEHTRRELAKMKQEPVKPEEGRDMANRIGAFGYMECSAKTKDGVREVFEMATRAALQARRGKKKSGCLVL
Chain of Cy3-labelled, prenylated Cdc42 G12V, GTPγS-bound (Cy3 at the N-terminus (Cy3 N-t labeled LPETGG peptide joined by sortase); geranylgeranyl by in vitro prenylation (C-terminal prenyl moiety); GTPγS-bound) (chain, as listed by the source G12V): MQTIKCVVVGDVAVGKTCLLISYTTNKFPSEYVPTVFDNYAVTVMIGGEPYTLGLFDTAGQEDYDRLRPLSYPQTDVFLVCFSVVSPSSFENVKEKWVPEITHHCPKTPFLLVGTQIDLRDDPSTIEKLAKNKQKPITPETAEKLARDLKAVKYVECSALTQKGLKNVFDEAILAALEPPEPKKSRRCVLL

B1: Xenopus laevis RhoGDI, wild type (natural protein)
chain: MAEHEPTPEQLHQIAAENQDEEHSVDYKPPAQKSIKEIQELDQDDESLRKYKEALLGSLPSSADPEASNVVVTKLTLLCDCAPGPLELDLTGDLEKFKKQSFTLKEGVEYRIKISFKVNKEIVSGLRYQQQTYRKGVRLDRTRYMVGSYGPRVDEYEFLTPIEEAPNGMLARGCYNIKSLFTDDDKSNHLSWEWNLHIKNDWKS
fold difference in extraction, GDP-bound GTPase over GTPγS-bound G12V [1]: 1.5 fold
fold difference in extraction, GDP-bound GTPase over GTPγS-bound G14V [2]: 1.5 fold
fold acceleration of the dissociation of Cdc42:GDP from the membrane by excess GDI [3]: ~20 fold
